Experimental findings from PMC4416707 are described below.

Assay in all cases: SEC; size exclusion chromatography of the purified LOV constructs under dark state conditions; apparent MW compared with the expected monomer MW of 17 kDa
(In general: In gel filtration, larger molecules generally elute earlier.)

The target in test [1] is McLOVn-TF residues 337-490 (isolated LOV domain of the Methylocystis LOV transcription factor) (Methylocystis Rockwall).
Test [2] has as its target Methylocystis rosea short LOV protein McLOVr (Methylocystis rosea).
The target of test [3] is Methylocystis short LOV protein McLOVn (Methylocystis Rockwall).

For orientation: stoichiometry N means the number of molecules, sites or subunits per partner or assembly. For the substance “McLOVn-TF residues 337-490 (isolated LOV domain of the Methylocystis LOV transcription factor) (domain or fragment)”, the stoichiometry N in test [1] stood at 2.

As for “Methylocystis rosea short LOV protein McLOVr (natural protein)”, the stoichiometry N in test [2] was 2. On to “Methylocystis short LOV protein McLOVn (natural protein)”, for which the stoichiometry N in test [3] is 2.
